Measurements taken from article PMC9328677 (2021).

B1: acidic domain of Homo sapiens APLF (APLF^AD, residues 450 to 511), wild type [Homo sapiens] / stoichiometric mixture of full-length Drosophila melanogaster H2A-H2B and H3-H4 (octamer-mix) [Drosophila melanogaster] (parent complex)
chain 1: DEDNDNVGQPNEYDLNDSFLDDEEEDYEPTDEDSDWEPGKEDEEKEDVEELLKEAKRFMKRK
chain 2: not shown
chain 3: not shown
chain 4: not shown
chain 5: not shown

Variants of: B1
Test: ITC

Kd [nM] | Variant
671 | chain 1 Y13A, chain 1 F19A
794 | chain 1 Y13A, chain 1 F19A, chain 1 Y27A, chain 1 W36A
317 | chain 1 Y27A, chain 1 W36A
